Laboratory results taken from US20230414780A1 (VECT HORUS, published 2023).

Legend:
[1] = target: T1, mouse transferrin receptor (mTfR) fused to EGFP, on CHO cells (mouse, UniProt Q62351 1-763); test: apparent Kd, flow cytometry, CHO cells
T1 construct: whole, on cells; also called mouse TfR; CHO-mTfR-EGFP; not shown: EGFP
Experimental: All experiments were performed in 96 well plates using 2×10⁵ cells/well, at 4° C. with shaking. CHO cell lines stably expressing the hTfR or the mTfR fused to EGFP or CHO WT cells were saturated with PBS/BSA 2% solution during 30 min to avoid non-specific binding, followed by incubation with purified VHHs at concentrations ranging from 50 μM to 5 μM for 1 hr. After one wash in PBS/BSA 2%, cells were incubated for 1 hr with an anti-6His tag antibody (mouse), washed twice with PBS/BSA 2%, and incubated for 45 min with an Alexa647-conjugated anti-mouse secondary antibody. After two last washes in PBS/BSA 2%, cells were fixed by incubation for 15 min with PBS/PFA 2%, washed once with PBS and finally resuspended in PBS and stored at 4° C. Fluorescence levels were assessed using an Attune NxT Flow Cytometer (Thermo Fisher Scientific). […] No labeling of the CHO WT control cells was detected with all the tested VHHs (not shown). The VHH K_{d app} were calculated using GraphPad Prism software (FIG. 11-B; 12-B).

[2] = target: T1, mouse transferrin receptor (mTfR) fused …; test: flow cytometry on CHO-mTfR-EGFP cells, 1 hr at 4 C, Alexa647 anti-mouse; apparent Kd, mean ± SEM of 3 experiments
Experimental: FIGS. 13A-13B: Apparent Kd determination of 13C3-HC-VHH fusions on hTfR- and mTfR-expressing CHO cell lines. (A) CHO-hTfR-EGFP and CHO-mTfR-EGFP cells were incubated 1 hr at 4° C. with various concentrations of 13C3 fusions and detected with an Alexa647-conjugated anti-mouse antibody (1/400). Measurements were performed using flow cytometry. The ratio of fluorescence intensity for each point was normalized with the corresponding EGFP signal (receptor expression) and gave rise to the arbitrary unit. Data are presented as mean±SEM of 3 independent experiments. (B) Characteristics of 13C3 fusions: Molecular Weight (Da); Apparent Kd on human TfR (nM); Apparent Kd on mouse TfR (nM). Data are presented as mean±SEM of 3 independent experiments. NB: no binding, LB: low binding.
All experiments were performed in 96 well plates using 2×10⁵ cells/well, at 4° C. with shaking. CHO cell lines stably expressing the hTfR or the mTfR fused to EGFP or CHO WT cells were saturated with PBS/BSA 2% solution during 30 min to avoid non-specific binding, followed by incubation with purified VHHs at concentrations ranging from 50 μM to 5 μM for 1 hr. After one wash in PBS/BSA 2%, cells were incubated for 1 hr with an anti-6His tag antibody (mouse), washed twice with PBS/BSA 2%, and incubated for 45 min with an Alexa647-conjugated anti-mouse secondary antibody. After two last washes in PBS/BSA 2%, cells were fixed by incubation for 15 min with PBS/PFA 2%, washed once with PBS and finally resuspended in PBS and stored at 4° C. Fluorescence levels were assessed using an Attune NxT Flow Cytometer (Thermo Fisher Scientific).

[3] = target: T2, human transferrin receptor (hTfR) fused to EGFP, on CHO cells (human, UniProt P02786 1-760); test: flow cytometry on CHO-hTfR-EGFP cells, 1 hr at 4 C, anti-6His + Alexa647 anti-mouse; ratio to background fluorescence
T2 construct: whole, on cells; also called human TfR; CHO-hTfR-EGFP; not shown: EGFP from pEGFP-C1 vector, fused to the N-terminal (intracellular) end of hTfR
Experimental: FIGS. 15A-15H: In vitro gene silencing activity of VHH-siGFPst1 bioconjugates. […] CHO-hTfR-EGFP cells were incubated 1 hr at 4° C. with various concentrations of the indicated compounds. Detection of VHHs was performed using a primary mouse anti-6His (1/1000) and an Alexa647-conjugated anti-mouse secondary antibody (1/400). Measurements of cell-surface signal associated to VHH were performed using flow cytometry. The results are expressed as the ratio of Alexa647-associated fluorescence intensity of test compounds to that of background fluorescence. […] The total fluorescence associated to the EGFP protein was then quantified using flow cytometry and rationalized to that of untreated (control) cells (set at 100%) *** p≤0.001. […] The total fluorescence associated with the EGFP protein was then quantified using flow cytometry and rationalized to that of untreated (control) cells (set at 100%). […] CHO-hTfR-EGFP cells were incubated with the indicated compounds at 1 μM during 120 hrs at 37° C. Data were processed and analyzed as described in (B). *** p≤0.001 vs. untreated cells. […] The total fluorescence associated with the EGFP protein was then quantified using flow cytometry and rationalized to that of untreated (control) cells (set at 100%).

[4] = target: T2, human transferrin receptor (hTfR) fused …; test: cell-based or functional assay

T2 sequence (P02786 whole entry, the tested form may be a part): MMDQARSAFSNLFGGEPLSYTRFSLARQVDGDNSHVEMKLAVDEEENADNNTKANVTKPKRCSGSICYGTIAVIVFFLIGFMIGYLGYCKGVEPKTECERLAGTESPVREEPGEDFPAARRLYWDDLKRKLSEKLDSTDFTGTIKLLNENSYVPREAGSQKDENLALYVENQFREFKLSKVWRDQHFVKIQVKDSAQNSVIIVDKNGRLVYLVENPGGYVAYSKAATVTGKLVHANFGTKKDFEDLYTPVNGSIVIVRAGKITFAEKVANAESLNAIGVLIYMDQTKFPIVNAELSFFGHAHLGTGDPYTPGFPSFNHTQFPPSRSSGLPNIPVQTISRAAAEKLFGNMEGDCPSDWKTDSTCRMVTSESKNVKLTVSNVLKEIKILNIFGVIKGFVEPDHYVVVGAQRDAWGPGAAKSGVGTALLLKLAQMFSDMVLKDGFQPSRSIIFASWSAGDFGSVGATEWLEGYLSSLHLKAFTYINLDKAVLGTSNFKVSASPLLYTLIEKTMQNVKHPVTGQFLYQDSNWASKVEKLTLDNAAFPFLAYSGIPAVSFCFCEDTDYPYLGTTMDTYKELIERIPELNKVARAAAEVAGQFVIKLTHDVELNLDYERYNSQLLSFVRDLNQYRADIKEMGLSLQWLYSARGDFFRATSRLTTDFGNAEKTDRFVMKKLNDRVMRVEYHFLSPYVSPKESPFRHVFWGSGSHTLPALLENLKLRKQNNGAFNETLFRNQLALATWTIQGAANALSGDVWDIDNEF
T1 sequence (Q62351 whole entry, the tested form may be a part): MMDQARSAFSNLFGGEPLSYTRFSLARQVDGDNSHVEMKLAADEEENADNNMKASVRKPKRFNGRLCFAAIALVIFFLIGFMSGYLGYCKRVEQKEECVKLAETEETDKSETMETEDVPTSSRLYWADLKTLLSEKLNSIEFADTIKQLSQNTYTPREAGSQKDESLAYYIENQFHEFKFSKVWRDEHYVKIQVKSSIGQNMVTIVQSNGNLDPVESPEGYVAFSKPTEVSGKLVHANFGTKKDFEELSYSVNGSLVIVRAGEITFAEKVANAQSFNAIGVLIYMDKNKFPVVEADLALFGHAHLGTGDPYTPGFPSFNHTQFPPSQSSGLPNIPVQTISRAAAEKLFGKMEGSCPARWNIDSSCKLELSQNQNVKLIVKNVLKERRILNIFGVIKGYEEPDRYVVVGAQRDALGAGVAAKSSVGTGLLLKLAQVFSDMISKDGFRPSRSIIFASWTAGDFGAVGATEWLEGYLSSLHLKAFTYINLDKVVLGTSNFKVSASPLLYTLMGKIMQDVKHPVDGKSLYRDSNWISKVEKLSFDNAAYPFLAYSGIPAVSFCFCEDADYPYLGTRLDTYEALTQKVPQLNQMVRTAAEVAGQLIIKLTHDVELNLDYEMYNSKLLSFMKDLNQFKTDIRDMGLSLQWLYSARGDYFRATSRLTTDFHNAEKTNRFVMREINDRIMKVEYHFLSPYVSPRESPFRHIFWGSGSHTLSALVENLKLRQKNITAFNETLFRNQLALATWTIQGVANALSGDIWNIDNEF

Binder	Kd [1]	Kd [2]	other results
13C3-LC-VHH A (antibody) light: DVVMTQTPLSLPVSLGDQASISCRSGQSLVHSNGNTYLHWYLQKPGQSPKLLIYTVSNRFSGVPDRFSGSGSGSDFTLKISRVEAEDLGVYFCSQNTFVPWTFGGGTKLEIKRADAAPTVSIFPPSSEQLTSGGASVVCFLNNFYPKDINVKWKIDGSERQNGVLNSWTDQDSKDSTYSMSSTLTLTKDEYERHNSYTCEATHKTSTSPIVKSFNRNECSGSGGGGGMAEVQLVESGGGVVQPGGSLKLSCVASGTDFSINFIRWYRQAPGKQREFVAGFTATGNTNYADSMKGRFTISRDNTKNAVYLQIDSLKPEDTAVYYCYMLDKWGQGTQVTVSSAAA heavy: QVQLQQSGPELVRPGVSVKISCKGSGYTFTDYAMHWVKQSHAKSLEWIGVISTKYGKTNYNQKFKGKATMTVDKSSSTAYMELARLTSEDSAIYYCARGDDGYSWGQGTSVTVSSAKTTPPSVYPLAPGSAAQTNSMVTLGCLVKGYFPEPVTVTWNSGSLSSGVHTFPAVLQSDLYTLSSSVTVPSSTWPSETVTCNVAHPASSTKVDKKIVPRDCGCKPCICTVPEVSSVFIFPPKPKDVLTITLTPKVTCVVVDISKDDPEVQFSWFVDDVEVHTAQTQPREEQFNSTFRSVSELPIMHQDWLNGKEFKCRVNSAAFPAPIEKTISKTKGRPKAPQVYTIPPPKEQMAKDKVSLTCMITDFFPEDITVEWQWNGQPAENYKNTQPIMDTDGSYFVYSKLNVQKSNWEAGNTFTCSVLHEGLHNHHTEKSLSHSPG	106 nM	–	–
13C3-HC-VHH A (antibody, mouse IgG1, mouse IgG1 13C3 (anti beta-amyloid protofibril) with VHH A at the C-ter of each heavy chain) heavy: QVQLQQSGPELVRPGVSVKISCKGSGYTFTDYAMHWVKQSHAKSLEWIGVISTKYGKTNYNQKFKGKATMTVDKSSSTAYMELARLTSEDSAIYYCARGDDGYSWGQGTSVTVSSAKTTPPSVYPLAPGSAAQTNSMVTLGCLVKGYFPEPVTVTWNSGSLSSGVHTFPAVLQSDLYTLSSSVTVPSSTWPSETVTCNVAHPASSTKVDKKIVPRDCGCKPCICTVPEVSSVFIFPPKPKDVLTITLTPKVTCVVVDISKDDPEVQFSWFVDDVEVHTAQTQPREEQFNSTFRSVSELPIMHQDWLNGKEFKCRVNSAAFPAPIEKTISKTKGRPKAPQVYTIPPPKEQMAKDKVSLTCMITDFFPEDITVEWQWNGQPAENYKNTQPIMDTDGSYFVYSKLNVQKSNWEAGNTFTCSVLHEGLHNHHTEKSLSHSPGGGGGMAEVQLVESGGGVVQPGGSLKLSCVASGTDFSINFIRWYRQAPGKQREFVAGFTATGNTNYADSMKGRFTISRDNTKNAVYLQIDSLKPEDTAVYYCYMLDKWGQGTQVTVSSAAA light: DVVMTQTPLSLPVSLGDQASISCRSGQSLVHSNGNTYLHWYLQKPGQSPKLLIYTVSNRFSGVPDRFSGSGSGSDFTLKISRVEAEDLGVYFCSQNTFVPWTFGGGTKLEIKRADAAPTVSIFPPSSEQLTSGGASVVCFLNNFYPKDINVKWKIDGSERQNGVLNSWTDQDSKDSTYSMSSTLTLTKDEYERHNSYTCEATHKTSTSPIVKSFNRNEC	–	11.3 nM	–
13C3-HC-VHH A6 (antibody) heavy: QVQLQQSGPELVRPGVSVKISCKGSGYTFTDYAMHWVKQSHAKSLEWIGVISTKYGKTNYNQKFKGKATMTVDKSSSTAYMELARLTSEDSAIYYCARGDDGYSWGQGTSVTVSSAKTTPPSVYPLAPGSAAQTNSMVTLGCLVKGYFPEPVTVTWNSGSLSSGVHTFPAVLQSDLYTLSSSVTVPSSTWPSETVTCNVAHPASSTKVDKKIVPRDCGCKPCICTVPEVSSVFIFPPKPKDVLTITLTPKVTCVVVDISKDDPEVQFSWFVDDVEVHTAQTQPREEQFNSTFRSVSELPIMHQDWLNGKEFKCRVNSAAFPAPIEKTISKTKGRPKAPQVYTIPPPKEQMAKDKVSLTCMITDFFPEDITVEWQWNGQPAENYKNTQPIMDTDGSYFVYSKLNVQKSNWEAGNTFTCSVLHEGLHNHHTEKSLSHSPGGGGGMAEVQLVESGGGVVQPGGSLKLSCVASGTDFSINFIRWYRQAPGKQREFVAGFTATGNTNYADSMKGRFTISRDNTKNAVYLQIDSLKPEDTAVYYCYALDKWGQGTQVTVSSAAA light: DVVMTQTPLSLPVSLGDQASISCRSGQSLVHSNGNTYLHWYLQKPGQSPKLLIYTVSNRFSGVPDRFSGSGSGSDFTLKISRVEAEDLGVYFCSQNTFVPWTFGGGTKLEIKRADAAPTVSIFPPSSEQLTSGGASVVCFLNNFYPKDINVKWKIDGSERQNGVLNSWTDQDSKDSTYSMSSTLTLTKDEYERHNSYTCEATHKTSTSPIVKSFNRNEC	–	23 nM	–
13C3-HC-VHH A8 (antibody) heavy: QVQLQQSGPELVRPGVSVKISCKGSGYTFTDYAMHWVKQSHAKSLEWIGVISTKYGKTNYNQKFKGKATMTVDKSSSTAYMELARLTSEDSAIYYCARGDDGYSWGQGTSVTVSSAKTTPPSVYPLAPGSAAQTNSMVTLGCLVKGYFPEPVTVTWNSGSLSSGVHTFPAVLQSDLYTLSSSVTVPSSTWPSETVTCNVAHPASSTKVDKKIVPRDCGCKPCICTVPEVSSVFIFPPKPKDVLTITLTPKVTCVVVDISKDDPEVQFSWFVDDVEVHTAQTQPREEQFNSTFRSVSELPIMHQDWLNGKEFKCRVNSAAFPAPIEKTISKTKGRPKAPQVYTIPPPKEQMAKDKVSLTCMITDFFPEDITVEWQWNGQPAENYKNTQPIMDTDGSYFVYSKLNVQKSNWEAGNTFTCSVLHEGLHNHHTEKSLSHSPGGGGGMAEVQLVESGGGVVQPGGSLKLSCVASGTDFSINFIRWYRQAPGKQREFVAGFTATGNTNYADSMKGRFTISRDNTKNAVYLQIDSLKPEDTAVYYCYMLAKWGQGTQVTVSSAAA light: DVVMTQTPLSLPVSLGDQASISCRSGQSLVHSNGNTYLHWYLQKPGQSPKLLIYTVSNRFSGVPDRFSGSGSGSDFTLKISRVEAEDLGVYFCSQNTFVPWTFGGGTKLEIKRADAAPTVSIFPPSSEQLTSGGASVVCFLNNFYPKDINVKWKIDGSERQNGVLNSWTDQDSKDSTYSMSSTLTLTKDEYERHNSYTCEATHKTSTSPIVKSFNRNEC	315 nM	–	–
VHH A-siGFPst1 bioconjugate (VHH, siGFPst1 siRNA linked by azide/DBCO click chemistry to the Gln of the C-terminal Q-tag, not shown: C-terminal tag with His tag and Q-tag (Q-tagged VHH)) VHH: EVQLVESGGGVVQPGGSLKLSCVASGTDFSINFIRWYRQAPGKQREFVAGFTATGNTNYADSMKGRFTISRDNTKNAVYLQIDSLKPEDTAVYYCYMLDKWGQGTQVTVSS	–	–	EC50 (read off the curve) [3]: ~3 nM; IC50 of reduction of GFP protein levels, 6-hour pulse and chase to 120 hrs [4]: 1.24 nM; IC50 of reduction of GFP protein levels, free uptake 120 hrs [4]: 2.73 nM
